{"source": "patent US20160280780A1", "about": "(CORMORANT PHARMACEUTICALS, published 2016)", "molecules": {"B1": {"name": "HuMab 10F8 (hybridoma-derived), human monoclonal IgG1,κ antibody (antibody, V domains shown)", "VH": "QVQLVESGGGVVQPGRSLRLSCTASGFTFSHYGMYWVRQAPGKGLEWVAVIWYDGSYEYNEDSVKGRFTISRDNSKNTLYLQMNSLRAEDTAVYYCARDRVGLFDYWGQGTLVTVSS", "VL": "EIVLTQSPGTLSLSPGERATLSCRASQSISSSYLAWYQQKPGQAPRLLIYGPSSRATGIPDRFSGSGSGTDFTLTISRLEPEDFAVYYCQQYAGSLTFGPGTKVDIK", "notes": "Purified from hybridoma culture supernatant by Protein A; also called HuMab-IL-8 clone 10F8; HuMab-IL-8 (10F8)"}, "B2": {"name": "10F8 Fab (Fab fragment prepared from HuMab 10F8 IgG) (Fab, V domains shown)", "VH": "B1 VH", "VL": "B1 VL"}, "B3": {"name": "HuMab 10F8 (transfectoma-derived), recombinant 10F8 produced from CHO cells (antibody, V domains shown)", "VH": "B1 VH", "VL": "B1 VL"}}, "key": {"[1]": {"molecular_target": "T1, rh-IL-8 72 aa form, monocyte derived (human, UniProt P10145 28-99)", "T1 construct": "mature; also called IL-8M; IL-8Mpepretech", "T1 sequence (looked up)": "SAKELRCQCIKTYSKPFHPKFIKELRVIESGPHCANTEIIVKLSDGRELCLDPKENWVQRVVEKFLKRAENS", "experiment": "cell-based or functional assay"}, "[2]": {"molecular_target": "recombinant human IL-8 (form not stated for this assay) (human) (UniProt P10145)", "experiment": "competition: varying murine anti-IL-8 antibody against 0.25 nM [125I]-rhIL-8 binding to IL-8 receptors (CXCR1, CXCR2) on human neutrophils, filter plate, gamma counting; x axis printed 'IL-8 (nM)'"}, "[3]": {"molecular_target": "T2, recombinant human IL-8 (form not stated for this assay) (human, UniProt P10145 28-99, limits assumed)", "T2 construct": "also called rhIL-8", "T2 sequence (looked up)": "T1 sequence (looked up)", "experiment": "SPR, BIAcore 3000, IL-8 amine-coupled on CM-5 chip, 25° C.", "experimental": "(§1) Affinity constants for 10F8 Fab were determined and compared with corresponding values of 10F8 IgG1,κ. Whole IgG molecules lead to rebinding effects during the dissociation phase of experimental procedures to determine the affinity constants, thus leading to an apparently lower dissociation rate constant and in turn, much higher affinity constant. To eliminate these artifactual avidity effects, Fab molecules were used in the place of IgG1,κ to determine the affinity and rate constants. A CM-5 chip was used to immobilize IL-8 via amine coupling."}, "[4]": {"molecular_target": "T2, recombinant human IL-8 (form not stated …)", "experiment": "SPR, BIAcore 3000, IL-8 amine-coupled on CM-5 chip, 37° C.", "experimental": "as §1"}, "[5]": {"molecular_target": "T2, recombinant human IL-8 (form not stated …)", "experiment": "SPR, BIAcore 3000, IL-8 amine-coupled on CM-5 chip, 25° C.; half-life of the complex", "experimental": "as §1"}, "[6]": {"molecular_target": "T2, recombinant human IL-8 (form not stated …)", "experiment": "SPR, BIAcore 3000, IL-8 amine-coupled on CM-5 chip, 37° C.; half-life of the complex", "experimental": "as §1"}, "[7]": {"molecular_target": "T2, recombinant human IL-8 (form not stated …)", "experiment": "inhibition of 0.25 nM [125I]-IL-8 binding to human neutrophils (CXCR1 and CXCR2), filter plate assay", "experimental": "(§2) Neutrophils were enriched from heparinized whole blood from normal volunteers. The blood was layered on Ficoll-hypaque and centrifuged at 1500 rpm for 30 minutes. The mononuclear cell layer was removed, and erythrocytes were hypotonically lysed. The resulting neutrophils were resuspended in PBS containing 0.1% BSA and 0.02% Na azide (0.1% PBA) and held on ice. The IL-8 binding assay was performed as previously described (Yang et al, (1999) J. Leukoc. Biol. 66:401-410). Briefly, in a final volume of 150 μl, 4×10⁵ neutrophils were incubated from 1.5-3 hours on ice with 0.25 nM [¹²⁵I] recombinant human IL-8 (Amersham Life Sciences, Piscataway, N.J.) along with varying concentrations of 10F8 (hybridoma-derived), 10F8 (transfectoma-derived), mouse anti-human IL-8 mAb 6712.111 R & D Systems, and control antibody. All incubations were performed in 96 well Multiscreen filter plates (Millipore, Bedford, Mass.). Plates were washed extensively with cold 0.1% PBA, and filters were counted on a Wallac gamma counter. Results are shown in FIGS. 7A and 7B, expressed as means of triplicate or quadruplicates. The inhibition of binding is expressed as percentage of control antibody.\nIn the experiment shown in FIG. 7B, the IC₅₀s of 10F8 (hybridoma-derived) (10F8 H) and 10F8 (transfectoma-derived) (10F8 T) were 0.19 nM and 0.30 nM, respectively."}, "[8]": {"molecular_target": "T3, recombinant human (rh) GRO-α (human, UniProt P09341 35-107)", "T3 sequence (looked up)": "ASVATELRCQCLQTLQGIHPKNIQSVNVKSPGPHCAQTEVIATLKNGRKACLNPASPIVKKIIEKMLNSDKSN", "experiment": "ELISA, plate coated with 1 µg/mL rh-GRO-α, HuMab 10F8 titrated 1:3 from 20 µg/mL, HRP anti-human IgG, A405", "experimental": "(§3) Possible cross-reactivity of HuMab 10F8 clone towards other chemokines was evaluated by ELISA. Briefly, microtiter ELISA plates (Greiner, Germany) were coated overnight at room temperature (RT) with 1 μg/mL of recombinant human (rh) GRO-α, rh-GRO-β, rh-IP-10, rh-IL-8 72 aa form, which is monocyte derived (IL-8M or IL-8Mpepretech) or rh-IL-8 77 aa form (IL-8E), which is endothelial cell derived, 100 μl per well. Plates were washed twice with PBST (phosphate buffered saline supplemented with 0.05% v/v Tween-20 (Fischer Scientific, USA)) and wells were blocked with 100 […] PBSTC (PBST plus 2% v/v chicken serum) for 1 hour, RT. Thereafter, wells were incubated for 1 hour, RT under shaking conditions with HuMab-IL-8 clone 10F8, 20 μg/mL 1:3 diluted in PBSTC. Subsequently, wells were washed thrice with PBST and incubated with either HRP-conjugated rabbit anti-mouse IgG F(ab′)₂ fragments (Jackson; diluted 1:3000 in PBSTC) or HRP-conjugated rabbit anti-human IgG F(ab′)₂ (DAKO, Denmark; diluted 1:2000 in PBSTC) for the detection of mouse or human antibodies, respectively."}, "[9]": {"molecular_target": "T4, rh-GRO-β (human, UniProt P19875 35-107)", "T4 sequence (looked up)": "T3 sequence (looked up) with S2P, V3L, P20L, N27K, R48Q, I58M, N68K, S69N, D70G", "experiment": "ELISA, plate coated with 1 µg/mL rh-GRO-β, HuMab 10F8 titrated 1:3 from 20 µg/mL, HRP anti-human IgG, A405", "experimental": "as §3"}, "[10]": {"molecular_target": "T5, rh-IP-10 (human, UniProt P02778 22-98)", "T5 sequence (looked up)": "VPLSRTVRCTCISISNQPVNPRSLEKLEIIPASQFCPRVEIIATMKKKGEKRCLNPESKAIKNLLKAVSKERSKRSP", "experiment": "ELISA, plate coated with 1 µg/mL rh-IP-10, HuMab 10F8 titrated 1:3 from 20 µg/mL, HRP anti-human IgG, A405", "experimental": "as §3"}, "[11]": {"molecular_target": "T1, rh-IL-8 72 aa form, monocyte derived", "experiment": "ELISA, plate coated with 1 µg/mL rh-IL-8 72 aa form (curve IL-8M), HuMab 10F8 titrated 1:3 from 20 µg/mL, HRP anti-human IgG, A405", "experimental": "as §3"}, "[12]": {"molecular_target": "T1, rh-IL-8 72 aa form, monocyte derived", "experiment": "ELISA, plate coated with 1 µg/mL rh-IL-8 72 aa form (curve IL-8Mpeprotec), HuMab 10F8 titrated 1:3 from 20 µg/mL, HRP anti-human IgG, A405", "experimental": "as §3"}, "[13]": {"molecular_target": "T2, recombinant human IL-8 (form not stated …)", "experiment": "competition: varying 10F8 against 0.25 nM [125I]-rhIL-8 binding to IL-8 receptors (CXCR1, CXCR2) on human neutrophils, filter plate, gamma counting; x axis printed 'IL-8 (nM)'", "experimental": "The ability of HuMab 10F8 to inhibit radiolabeled IL-8 binding to IL-8 receptors (CXCR1 and CXCR2) on neutrophils was assessed as follows:\nas §2"}}, "note": "Changes are numbered by the printed parent chain."}
{"molecule": "irrelevant human isotype control antibody (Example 8)", "values": [{"measurement": "expression level of CD11b on IL-8 stimulated PMN (MFI)", "setting": "[1]", "result": 2400, "unit": "MFI"}, {"measurement": "expression of CD62L on IL-8 stimulated PMN (MFI)", "setting": "[1]", "result": 150, "unit": "MFI"}]}
{"molecule": "mouse anti-human IL-8 mAb 6712.111 (R & D Systems) (antibody)", "values": [{"measurement": "IC50 (read off the curve)", "setting": "[2]", "result": 500, "unit": "pM"}]}
{"molecule": "B1", "values": [{"measurement": "Kd", "setting": "[3]", "result": 10, "unit": "pM"}, {"measurement": "koff", "setting": "[3]", "result": "2.1e-06", "unit": "s⁻¹"}, {"measurement": "kon", "setting": "[3]", "result": 231000, "unit": "M⁻¹ s⁻¹"}, {"measurement": "Kd", "setting": "[4]", "result": 20, "unit": "pM"}, {"measurement": "koff", "setting": "[4]", "result": "5.4e-06", "unit": "s⁻¹"}, {"measurement": "kon", "setting": "[4]", "result": 275000, "unit": "M⁻¹ s⁻¹"}, {"measurement": "Half-life (1n (2/k_off hrs))", "setting": "[5]", "result": 90.4, "unit": "h"}, {"measurement": "Half-life (1n (2/k_off hrs))", "setting": "[6]", "result": 38.2, "unit": "h"}, {"measurement": "IC50", "setting": "[7]", "result": 190, "unit": "pM"}, {"measurement": "binding result", "setting": "[8]", "result": "no binding (tested: 20 µg/ml)"}, {"measurement": "binding result", "setting": "[9]", "result": "no binding (tested: 20 µg/ml)"}, {"measurement": "binding result", "setting": "[10]", "result": "no binding (tested: 20 µg/ml)"}, {"measurement": "EC50 (read off the curve)", "setting": "[11]", "result": "~0.4", "unit": "µg/mL"}, {"measurement": "EC50 (read off the curve)", "setting": "[12]", "result": "~0.2", "unit": "µg/mL"}, {"measurement": "IC50 (read off the curve)", "setting": "[13]", "result": "~200", "unit": "pM"}]}
{"molecule": "B2", "values": [{"measurement": "Kd", "setting": "[3]", "result": 194, "unit": "pM"}, {"measurement": "koff", "setting": "[3]", "result": "1.96e-05", "unit": "s⁻¹"}, {"measurement": "kon", "setting": "[3]", "result": 101000, "unit": "M⁻¹ s⁻¹"}, {"measurement": "Kd", "setting": "[4]", "result": 372, "unit": "pM"}, {"measurement": "koff", "setting": "[4]", "result": "3.94e-05", "unit": "s⁻¹"}, {"measurement": "kon", "setting": "[4]", "result": 106000, "unit": "M⁻¹ s⁻¹"}, {"measurement": "Half-life (1n (2/k_off hrs))", "setting": "[5]", "result": 8.3, "unit": "h"}, {"measurement": "Half-life (1n (2/k_off hrs))", "setting": "[6]", "result": 4.9, "unit": "h"}]}
{"molecule": "B3", "values": [{"measurement": "IC50", "setting": "[7]", "result": 300, "unit": "pM"}]}
